Data published in patent publication US20100221257A1 (AstraZeneca / MedImmune, published 2010).
Positions count from the first letter of the chain named. Values belong to the binder of their own block, whether it stands above or below them.

What was measured:
[1] = biological target: T1, human histidine tagged (HIS) IL1RFc fusion protein (human); assay: HTRF receptor-ligand assay, scFv inhibiting HIS FLAG IL-1β binding to human HIS IL1RFc; incomplete inhibition curve, value estimated; incomplete inhibition curve; IC50 estimated
T1 construct: Biotinylated or cryptate labelled in some assays; also called human HIS IL1RFc; huIL-1R1-Fc
Procedure: (§1) After pre-incubation of the assay plates, 5 μl of 4 nM HIS FLAG IL1 beta was added. This was followed by 5 μl of 20 nM anti-FLAG IgG labelled with XL665 (CIS Bio international 61FG2XLB) and 5 μl of 3.2 nM anti-human Fc IgG labelled with cryptate (CIS Bio International 61HFCKLB). All dilutions were performed in phosphate buffered saline (PBS) containing 0.4 M potassium fluoride and 0.1% BSA (assay buffer).
(§2) Purified scFv from positive clones identified from screening were tested in either of the above receptor-ligand HTRF® assays for inhibition of binding of human HIS FLAG tagged IL1 beta to human HIS IL1RFc. A skilled person could modify these assays to test IgG or other inhibitor formats. A titration of scFv concentrations was used in order to establish the clone potency as measured by IC₅₀ values in the assay. All dilutions were carried out in assay buffer. 5 μl of a titration of purified scFv sample was added to a 384 well low volume assay plate (Costar 3676). This was then followed by addition of 2 nM human HIS IL1RFc (when using in house HIS IL1 beta) or 8 nM HIS IL1RFc (when using Alexis source IL1 beta) to a volume of 20 μl. Assay plates were then sealed and incubated at room temperature in dark for 1 hour. The subsequent addition steps were carried out as exactly as described for crude scFv containing periplasmic extracts.

[2] = biological target: T2, cynomolgus monkey HIS IL1RFc (cynomolgus monkey); assay: KinExA, FAb equilibrated in solution with IL-1R1-Fc; free FAb captured on IL-1R1 beads
T2 construct: also called Cyno his IL1RFc; CynoIL1-R1-Fc
Procedure: (§3) Firstly either a monomerised FAb was allowed to come to equilibrium with sIL-1R1-Fc (soluble sIL-1R1-Fc), or the IgG was allowed to come to equilibrium with sIL-1R1 (un-tagged). These equilibrated solutions of the interacting molecules were then analysed using KinExA™. 3200 technology. In brief, for each equilibrated sample, the KinExA™. 3200 instrument automatically packed a fresh column of sIL-1R1 conjugated micro-beads. The sample containing antibody (or FAb fragment), antigen, and Ab/antigen (or FAb/antigen) complex (in Dulbecco's PBS, 1 mg mL⁻¹ bovine serum albumin, 0.02% (w/v) sodium azide) was flowed rapidly (0.25 mL/min) through the column to keep the contact time of the sample with the antigen-beads extremely brief. This rapid contact time ensured that, for high affinity (slowly dissociating) interactions, dissociation of the complex was negligible during this short contact time. Free antibody bound to the IL-1R1-beads. A Cy5™ (cyanine) fluorescently labelled secondary antibody, mouse anti-human IgG (heavy and light chain specific) was then passed through the column. Labelled secondary antibody bound to the antibody bound to the column. A buffer wash removed excess label, leaving fluorescence signal on the bead column directly proportional to the amount of free […] in the original sample. […]

[3] = biological target: T1, human histidine tagged (HIS) IL1RFc …; assay: as above
Procedure: as §3

[4] = biological target: T3, human IL-1R1, endogenous on human cells (HeLa cells; whole blood) (human, UniProt P14778 18-569); assay: cell-based or functional assay
T3 sequence (looked up): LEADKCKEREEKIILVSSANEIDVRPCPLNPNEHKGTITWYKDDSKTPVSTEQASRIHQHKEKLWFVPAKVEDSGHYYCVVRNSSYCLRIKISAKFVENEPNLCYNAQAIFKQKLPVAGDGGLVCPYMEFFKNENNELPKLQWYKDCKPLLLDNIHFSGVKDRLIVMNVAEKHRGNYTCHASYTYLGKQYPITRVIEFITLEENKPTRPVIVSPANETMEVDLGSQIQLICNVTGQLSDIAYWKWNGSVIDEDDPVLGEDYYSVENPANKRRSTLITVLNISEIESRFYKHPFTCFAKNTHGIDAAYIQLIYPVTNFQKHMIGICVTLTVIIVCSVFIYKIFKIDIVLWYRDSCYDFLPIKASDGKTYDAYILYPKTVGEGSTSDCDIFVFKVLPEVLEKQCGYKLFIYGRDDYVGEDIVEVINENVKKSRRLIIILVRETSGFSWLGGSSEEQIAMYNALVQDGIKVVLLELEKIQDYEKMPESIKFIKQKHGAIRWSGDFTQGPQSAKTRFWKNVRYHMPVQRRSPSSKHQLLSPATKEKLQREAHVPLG

[5] = biological target: T4, Human sIL-1R1 (R&D Systems), un-tagged (human, UniProt P14778 18-332, limits assumed); assay: KinExA, IgG equilibrated in solution with un-tagged sIL-1R1; free IgG captured on IL-1R1 beads
T4 construct: Bought; also called soluble human IL-1R1
T4 sequence (looked up): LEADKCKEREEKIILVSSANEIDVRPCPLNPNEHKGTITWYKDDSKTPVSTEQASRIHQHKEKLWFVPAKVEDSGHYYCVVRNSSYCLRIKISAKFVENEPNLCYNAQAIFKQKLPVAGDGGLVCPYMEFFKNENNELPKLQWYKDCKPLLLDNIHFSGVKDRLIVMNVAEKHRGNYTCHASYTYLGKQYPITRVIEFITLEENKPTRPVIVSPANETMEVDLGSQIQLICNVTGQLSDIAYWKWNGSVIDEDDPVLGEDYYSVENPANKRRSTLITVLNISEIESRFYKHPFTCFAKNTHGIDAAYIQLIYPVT
Procedure: as §3

[6] = biological target: T1, human histidine tagged (HIS) IL1RFc …; assay: HTRF receptor-ligand assay, scFv inhibiting HIS FLAG IL-1β binding to human HIS IL1RFc
Procedure: as §1, §2

T2 sequence (chain, as listed by the source limits assumed): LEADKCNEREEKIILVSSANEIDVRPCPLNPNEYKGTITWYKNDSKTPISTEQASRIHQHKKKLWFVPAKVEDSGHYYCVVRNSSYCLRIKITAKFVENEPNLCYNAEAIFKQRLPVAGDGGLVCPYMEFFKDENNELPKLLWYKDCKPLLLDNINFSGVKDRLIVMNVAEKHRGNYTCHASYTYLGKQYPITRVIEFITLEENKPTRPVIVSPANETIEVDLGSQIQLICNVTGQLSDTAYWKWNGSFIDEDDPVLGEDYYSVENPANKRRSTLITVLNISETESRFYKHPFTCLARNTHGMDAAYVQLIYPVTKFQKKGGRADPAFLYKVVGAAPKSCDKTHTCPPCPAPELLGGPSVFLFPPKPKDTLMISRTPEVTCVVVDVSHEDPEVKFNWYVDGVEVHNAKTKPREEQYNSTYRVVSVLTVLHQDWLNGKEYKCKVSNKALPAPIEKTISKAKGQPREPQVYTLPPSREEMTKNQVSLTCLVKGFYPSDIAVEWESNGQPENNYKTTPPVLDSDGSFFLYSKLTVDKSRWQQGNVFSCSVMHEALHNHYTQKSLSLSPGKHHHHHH

B1: Antibody 1 scFv (scFv, V domains shown)
VH: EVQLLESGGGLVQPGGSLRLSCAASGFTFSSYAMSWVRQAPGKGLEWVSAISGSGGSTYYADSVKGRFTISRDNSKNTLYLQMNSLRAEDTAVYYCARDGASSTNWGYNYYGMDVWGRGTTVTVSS
VL: QAVLTQPSSASGTPGQRVTISCSGSSSNIGSNYVFWYQQFPGTAPQLLVKWNNQRPSGVPDRFSGSKSGTSASLAISGLRSEDEADYYCAAWDDSLSGLVFGGGTKLTVL
notes: Tested as purified scFv; also called KENB026 or KENB061 (parent, not resolved)
IC50 [1]: ~225 nM

B4: Antibody 4 scFv (scFv, V domains shown)
VH: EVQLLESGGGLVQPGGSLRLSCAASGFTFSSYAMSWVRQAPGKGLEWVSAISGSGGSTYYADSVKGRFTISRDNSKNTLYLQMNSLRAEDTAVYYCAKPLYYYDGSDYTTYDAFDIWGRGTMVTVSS
VL: QSVLTQPPSVSGAPGQRVTISCTGSSSNIGAGYDVHWYQQLPGTAPKLLIYGDTHRPSGVPDRFSGSKSGTSASLVIAGLQAEDEADYYCQSYDTSLSGSLFGGGTKLTVL
notes: as for B1
IC50 [6]: 22.5 nM

Second part, the binder after the results:

Kd [2]: 0.0028 nM | Kd [3]: 0.0025 nM
B2: Antibody 6 FAb (Fab, V domains shown)
VH: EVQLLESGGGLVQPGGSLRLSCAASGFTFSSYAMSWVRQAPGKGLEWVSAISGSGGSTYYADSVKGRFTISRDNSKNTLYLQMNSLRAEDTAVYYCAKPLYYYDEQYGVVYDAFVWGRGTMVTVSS
VL: B4 VL with S96V, L97R, S98L, G99H, S100H, L101V
notes: Monomeric FAb made by papain digestion of Antibody 6 IgG1TM; also called anti-IL-1R1FAb; monomerised FAb

Mean IC50, whole blood assay, IL-1beta induced release of IL-6 [4]: 311000 nM | Kd [5]: 0.00305 nM
B3: Antibody 6 IgG1TM (Triple Mutant, 234F, 235E and 331S) (antibody, V domains shown)
VH: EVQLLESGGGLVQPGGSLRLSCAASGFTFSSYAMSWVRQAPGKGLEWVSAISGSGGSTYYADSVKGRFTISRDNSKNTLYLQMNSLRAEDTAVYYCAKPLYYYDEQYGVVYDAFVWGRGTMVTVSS
VL: B4 VL with S96V, L97R, S98L, G99H, S100H, L101V
notes: IgG1 with Fc triple mutant 234F, 235E, 331S (EU index)
